The values that follow come from patent publication US20120311745A1.

As usually defined, the IC50 is the midpoint of a concentration-inhibition curve.

The target of this assay is receptor protein(s) / binding site of Cry1Ab core toxin on Brush Border Membrane Vesicles (BBMV's) f (Spodoptera frugiperda).

Consider “Cry1Ab core toxin protein (activated core toxin prepared by trypsin digestion of the Cry1Ab protein) (from UniProt P0A370 29-612)”, for which the IC50 turned out to be 5 nM.
